T1: human neurotrophin 4 (NT4) (human, UniProt P34130 81-210)
T1 construct: Bought protein coated on ELISA plates
T1 sequence (looked up): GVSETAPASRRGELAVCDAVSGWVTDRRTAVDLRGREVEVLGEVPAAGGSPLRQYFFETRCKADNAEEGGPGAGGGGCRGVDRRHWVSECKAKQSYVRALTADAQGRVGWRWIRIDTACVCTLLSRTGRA

T2: human neurotrophin 3 (NT3) (human, UniProt P20783 139-257)
T2 construct: Bought protein coated on ELISA plates
T2 sequence (looked up): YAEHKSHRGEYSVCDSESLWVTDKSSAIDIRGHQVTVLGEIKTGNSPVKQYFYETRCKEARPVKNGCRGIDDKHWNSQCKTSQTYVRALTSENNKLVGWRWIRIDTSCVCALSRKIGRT

T3: human brain-derived neurotrophic factor (BDNF) (human, UniProt P23560 129-247)
T3 construct: Bought protein coated on ELISA plates; also called human BDNF
T3 sequence (looked up): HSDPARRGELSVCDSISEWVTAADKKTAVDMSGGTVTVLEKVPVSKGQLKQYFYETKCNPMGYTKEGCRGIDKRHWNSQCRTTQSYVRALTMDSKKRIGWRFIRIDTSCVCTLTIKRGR

B1: PG110 (humanized anti-NGF antibody, Hu-alphaD11 variable regions with Ser-to-Pro hinge-mutated human IgG4 constant region and human kappa light chain) (antibody, V domains shown)
VH: EVQLVESGGGLVQPGGSLRLSCAASGFSLTNNNVNWVRQAPGKGLEWVGGVWAGGATDYNSALKSRFTISRDNSKNTAYLQMNSLRAEDTAVYYCARDGGYSSSTLYAMDAWGQGTLVTVSS
VL: DIQMTQSPSSLSASVGDRVTITCRASEDIYNALAWYQQKPGKAPKLLIYNTDTLHTGVPSRFSGSGSGTDYTLTISSLQPEDFATYFCQHYFHYPRTFGQGTKVEIKR
notes: expressed in CHO cells; also called PG110 antibody; PG110 mAb

Assays:
[1] = target: T4, recombinant rat beta nerve growth factor (rat, UniProt P25427 122-241); test: cell-based or functional assay
T4 sequence (P25427 122-241 limits assumed): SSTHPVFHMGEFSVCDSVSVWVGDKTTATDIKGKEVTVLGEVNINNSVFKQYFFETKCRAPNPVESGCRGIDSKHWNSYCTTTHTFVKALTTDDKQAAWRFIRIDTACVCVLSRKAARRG

[2] = target: recombinant human beta nerve growth factor (human) (UniProt P01138); test: cell-based or functional assay
recombinant human beta nerve growth factor (human), sequence (P01138 122-241 limits assumed): as the sequence (P25427 122-241 limits assumed) above, with T3S, V6I, M9R, T37M, A60D, E65D, T92M, D94G, A117V, G120A counted along it

[3] = target: T4, recombinant rat beta nerve growth factor; test: cell-based or functional assay; remark: listed apart in the source
[4] = target: recombinant mouse NGF (mouse, UniProt P01139 122-241, limits assumed); test: cell-based or functional assay
recombinant mouse NGF, sequence (P01139 122-241 limits assumed): as the sequence (P25427 122-241 limits assumed) above, with G40A, K50R, P61S, D94E, A117T counted along it

[5] = target: T4, recombinant rat beta nerve growth factor; test: SPR (BIAcore), rrNGF immobilised on CM5 (60 RU), PG110 as analyte, 37 C, 1:1 Langmuir, mean of 3
Source text: BIAcore analysis was used to evaluate the binding kinetics of the interaction between PG110 and either recombinant rat NGF (rrNGF) or recombinant human NGF (rhNGF).
Recombinant human beta nerve growth factor (rhNGF) (R&D Systems, Cat. No. 256 GF/CF) or recombinant rat beta nerve growth factor (rrNGF) (R&D Systems, Cat. No. 556 GF/CF) was immobilized covalently on CM5 sensor chips (GE Healthcare, formerly Biacore AB, Uppsala, Sweden) via primary amine groups using the amine coupling kit (GE Healthcare), with HBSEP (10 mM 4-(2-hydroxyethyl)-1-piperazineethanesulfonic acid (HEPES), 150 mM NaCl, 3 mM ethylene-diamine-tetraacetic acid (EDTA) and 0.005% Tween® 20, pH 7.4) as running buffer. The sensor chip surface was activated by injection of a mixture of 400 mM N-(3-Dimethylaminopropyl)-N′-ethylcarbodiimide (EDC) and 100 mM N-Hydroxysuccinimide (NHS) (1:1, v/v) for 7 minutes at a flow rate of 10 μl/min. β-NGF (rh or rr) was diluted to 200 ng/ml in 10 mM sodium acetate pH 4.0 and the diluted solution was injected over the activated surface for various times to yield different surface densities. For quantitative interaction analyses, a surface density of 60 RU was prepared by injection of 50 μl diluted β-NGF (contact time 5 minutes). Non-reacted NHS esters were deactivated with 70 μl (contact time 7 minutes) ethanolamine solution (1 M, pH 8.5).

[6] = target: T1, human neurotrophin 4 (NT4); test: ELISA, plates coated with human NT4, PG110 titrated, fluorescence read-out
Method: (§1) The selectivity profile of PG110 binding to human neurotrophins was determined using an Enzyme-Linked ImmunoSorbent Assay (ELISA) binding assay. ELISA plates were coated with 100 ng/well of either human NGF (R&D Systems, Cat. No. 256-GF), brain-derived neurotrophic factor (BDNF) (R&D Systems, Cat. No. 248-BD), neurotrophin 3 (NT3) (R&D Systems, Cat. No. 267-N3) or neurotrophin 4 (NT4) (R&D Systems, Cat. No. 268-N4). PG110 was added to neurotrophin-coated wells in the concentration range 3 pM-3 nM. After washing (PBS in 0.5% (v/v) Tween 20, pH 7.3), PG110 binding was detected using a biotinylated anti-human IgG antibody (Rockland Immunochemical Inc., Cat. No. 609-1602) coupled with streptavidin-linked alkaline phosphatase (Sigma Aldrich, Cat. No. S2890), followed by development of a color reaction by addition of 4-methylumbelliferyl phosphate (Sigma Aldrich, Cat. No. M3168). The reaction product was quantified using a fluorimeter (excitation at 360 nm; emission at 440 nm).

[7] = target: T2, human neurotrophin 3 (NT3); test: ELISA, plates coated with human NT3, PG110 titrated, fluorescence read-out
Method: as §1

[8] = target: T3, human brain-derived neurotrophic factor …; test: ELISA, plates coated with human BDNF, PG110 titrated, fluorescence read-out
Method: as §1

[9] = target: T4, recombinant rat beta nerve growth factor; test: cell-based or functional assay; remark: listed apart in the source

| Molecule | IC50, TF1 cell proliferation mediated by rat NGF (MTT), geomean, n=3; Batch 1 [1] [µg/mL] | IC50, TF1 cell proliferation mediated by rat NGF (MTT), n=1; Batch 2 [1] [µg/mL] | IC50, TF1 cell proliferation mediated by human NGF (MTT), geomean, n=3; Batch 1 [2] [µg/mL] | IC50, TF1 cell proliferation mediated by human NGF (MTT), n=1; Batch 2 [2] [µg/mL] | IC50, TF-1 cell proliferation stimulated by 10 ng/ml rat recombinant NGF (MTT), geomean, n=5 [3] [µg/mL] | IC50, TF-1 cell proliferation stimulated by 10 ng/ml mouse recombinant NGF (MTT), geomean, n=3 [4] [µg/mL] | Kd [5] [nM] | koff [5] [s⁻¹] | kon [5] [M⁻¹ s⁻¹] | binding result [6] | binding result [7] | binding result [8] | IC50, TF1 cell proliferation mediated by rat NGF (MTT), geomean, n=2 [9] [µg/mL] |
| --- | --- | --- | --- | --- | --- | --- | --- | --- | --- | --- | --- | --- | --- |
| rat αD11 antibody (precursor of PG110) | 0.0448 | 0.0549 | 0.0637 | 0.107 | – | – | – | – | – | – | – | – | – |
| B1 | – | – | – | – | 0.0278 | 0.0308 | 0.092 | 1.5e-05 | 170000 | no binding | no binding | no binding | 0.0262 |

— patent US20130295112A1 (AbbVie / Abbott, published 2013)
